Measurements: PMC4686813

Biological target: Sec61β (dog (endogenous in canine pancreatic microsomes)) (UniProt P60467)
Test: cross-linking; BMH on microsomes stripped of ribosomes with EDTA and high salt (EKRM); western blot with anti-Sec62; also with purified canine ribosomes added back

Sequence of UniProt P60467 (P60467 whole entry): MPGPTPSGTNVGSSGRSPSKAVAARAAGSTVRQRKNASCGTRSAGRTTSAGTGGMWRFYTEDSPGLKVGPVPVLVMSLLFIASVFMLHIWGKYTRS

percent of Sec62 cross-linked to Sec61β: > 50%
Substance: Sec62 (from UniProt P82009 1-39) (natural protein)
